According to the supplement of paper PMC7125110:
± gives the standard error. Fewer inactive variants are shown than the library holds.

B1: glmS ribozyme (parent)
chain: AUAAAAGCGCCAGAACUACAGAAAUGUAGUUGACGAGGAGGAGGUUUAUCGAAUUUUCGGCGGAUGCCUCCAAA

Tests used:
Details in all cases: with glucosamine-6-phosphate
[1] = variants of: B1; assay: self-cleavage kobs at 40 uM GlcN6P; higher = faster cleavage; RNA array
Outline: (§1)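 Ribozyme variants carrying barcodes were transcribed in situ on sequenced MiSeq chips by E. coli RNA polymerase and tracked at 37 °C with a hybridised Cy3 probe. They were exposed to 40 μM to 10 mM glucosamine-6-phosphate in HEPES/KCl/Mg(OAc)2 buffer. kobs came from exponential decay fits of normalised per-tile medians, and kcat and KM from weighted Michaelis–Menten fits.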

[2] = variants of: B1; assay: self-cleavage kobs at 160 uM GlcN6P; higher = faster cleavage; RNA array
Outline: as §1

[3] = variants of: B1; assay: self-cleavage kobs at 640 uM GlcN6P; higher = faster cleavage; RNA array
Outline: as §1

[4] = variants of: B1; assay: self-cleavage kobs at 10000 uM GlcN6P; higher = faster cleavage; RNA array
Outline: as §1

[5] = variants of: B1; assay: self-cleavage kobs at 2500 uM GlcN6P; higher = faster cleavage; RNA array
Outline: as §1

Row | Variant | self-cleavage kobs at 40 uM GlcN6P [1] [s⁻¹] | self-cleavage kobs at 160 uM GlcN6P [2] [s⁻¹] | self-cleavage kobs at 640 uM GlcN6P [3] [s⁻¹] | self-cleavage kobs at 10000 uM GlcN6P [4] [s⁻¹] | self-cleavage kobs at 2500 uM GlcN6P [5] [s⁻¹]
1 | AUAAAAGCGCCAGAACUACAGAAAUGUAGUUGACGAGGAGGAGGUUUUACGAAUUUUCGGCGGAUGCCUCCAAA | < 1e-05 | < 1e-05 | < 1e-05 |  | 
2 | AUAAAAGCGCCAGAACUACAGAAAUGUAGUUGACGAGGAGGAGGUUUUUGGAAUUUUCGGCGGAUGUCUCCAAA | 0.000126 ± 4.4e-05 |  |  |  | 
3 | AUAAAAGCGCCAGAACUACAGAAAUGUAGUUGACGAGGAGGAGGUUUAAGGAAUUUUCGGCGGAUGCGUCCAAA | 9.07e-05 ± 3.4e-05 |  |  |  | 
4 | AUAAAAGCGCCAGAACUACAGAAAUGUAGUUGACGAGGAGGAGGUUUGUGGAAUUUUCGGGGGAUGCCUCCAAA | 0.000172 ± 6.6e-05 |  |  | 0.000127 ± 3.7e-05 | 
5 | AUAAAAGCGCCAGAACUACAGAAAUGUAGUUGACGAGGAGGAGGUUUUUUGAAUUUUCGGCGGAUGCCUCCAAA | < 1e-05 | < 1e-05 | < 1e-05 | < 1e-05 | < 1e-05
6 | AUAAAAGCGCCAGAACUACAGAAAUGUAGUUGACGAGGAGGAGGUUUGUCUAAUUUUCGGCGGAUGCCUCCAAA | < 1e-05 | < 1e-05 |  |  | 
7 | AUAAAAGCGCCAGAACUACAGAAAUGUAGUUGACGAGGAGGAGGUUUUUCGAAUUUUCGGCGGCUGUCUCCAAA | < 1e-05 |  | < 1e-05 | < 1e-05 | 
8 | AUAAAAGCGCCAGAACUACAGAAAUGUAGUUGACGAGGAGGAGGUUUACAGAAUUUUCGGCGGAUGCCUCCAAA | < 1e-05 | < 1e-05 |  |  | 
9 | AUAAAAGCGCCAGAACUACAGAAAUGUAGUUGACGAGGAGGAGGUUUGUCGAAUUUUCGGUGGAUCCCUUCAAA | < 1e-05 |  |  |  | 
10 | AUAAAAGCGCCAGAACUACAGAAAUGUAGUUGACGAGGAGGAGGUUUACCGAAUUUUCGGAGGAUGCCUUCAAA | < 1e-05 |  |  | < 1e-05 | 
11 | AUAAAAGCGCCAGAACUACAGAAAUGUAGUUGACGAGGAGGAGGUUUUUCGAAUUUUCGGCGUAUGCCUCCAAA | < 1e-05 | < 1e-05 | < 1e-05 | < 1e-05 | < 1e-05
12 | AUAAAAGCGCCAGAACUACAGAAAUGUAGUUGACGAGGAGGAGGUUUAACGAAUUUUCGGCGGAUGACCCCAAA | < 1e-05 |  |  |  | 
13 | AUAAAAGCGCCAGAACUACAGAAAUGUAGUUGACGAGGAGGAGGUUUUUCGAAUUUUCGGCCGAUGCCUUCAAA | < 1e-05 |  | < 1e-05 | < 1e-05 | < 1e-05
14 | AUAAAAGCGCCAGAACUACAGAAAUGUAGUUGACGAGGAGGAGGUUUUUCGAAUUUUCGACGGAUGCCUCCAAA | < 1e-05 | < 1e-05 | < 1e-05 | < 1e-05 | < 1e-05
15 | AUAAAAGCGCCAGAACUACAGAAAUGUAGUUGACGAGGAGGAGGUUUUUAGAAUUUUCGGCGGAUUCCUCCAAA | < 1e-05 |  |  |  | 
16 | AUAAAAGCGCCAGAACUACAGAAAUGUAGUUGACGAGGAGGAGGUUUUUCGAAUUUUCGGCGGAUGUCUUCAAA | < 1e-05 |  |  |  | < 1e-05
17 | AUAAAAGCGCCAGAACUACAGAAAUGUAGUUGACGAGGAGGAGGUUUGUCGAAUUUUCGGCGUAUGCCUCCAAA | < 1e-05 |  |  | < 1e-05 | < 1e-05
18 | AUAAAAGCGCCAGAACUACAGAAAUGUAGUUGACGAGGAGGAGGUUUACCGAAUUUUCAGCGGAUGGCUCCAAA | < 1e-05 | < 1e-05 | < 1e-05 | < 1e-05 | 
19 | AUAAAAGCGCCAGAACUACAGAAAUGUAGUUGACGAGGAGGAGGUUUUUCGAAUUUUCGGCUGAUGCGUCCAAA | < 1e-05 |  |  |  | 
20 | AUAAAAGCGCCAGAACUACAGAAAUGUAGUUGACGAGGAGGAGGUUUACCGCAUUUUCGGCGGAUGCCUCCAAA | < 1e-05 | < 1e-05 |  | < 1e-05 | < 1e-05
21 | AUAAAAGCGCCAGAACUACAGAAAUGUAGUUGACGAGGAGGAGGUUUAACGAAUUUUCGGCGCAUGCCCCCAAA | < 1e-05 |  |  |  | 
22 | AUAAAAGCGCCAGAACUACAGAAAUGUAGUUGACGAGGAGGAGGUUUUUCGAAUUUUCGCUGGAUGCCUCCAAA | < 1e-05 |  | < 1e-05 |  | 
23 | AUAAAAGCGCCAGAACUACAGAAAUGUAGUUGACGAGGAGGAGGUUUACCGAAUUUUUGGCGGAUGCCUCCAAA | < 1e-05 | < 1e-05 | < 1e-05 | < 1e-05 | < 1e-05
24 | AUAAAAGCGCCAGAACUACAGAAAUGUAGUUGACGAGGAGGAGGUUUGUCGAAUUUUCGGCGGAUGCCACCAAA | < 1e-05 |  |  |  | 
25 | AUAAAAGCGCCAGAACUACAGAAAUGUAGUUGACGAGGAGGAGGUUUGUCGAAUUUUCGGCGGUUGCCUCCAAA | < 1e-05 | < 1e-05 | < 1e-05 | < 1e-05 | 
26 | AUAAAAGCGCCAGAACUACAGAAAUGUAGUUGACGAGGAGGAGGUUUUUCGGAUUUUCGGCGAAUGCCUCCAAA | < 1e-05 |  |  | < 1e-05 | 
27 | AUAAAAGCGCCAGAACUACAGAAAUGUAGUUGACGAGGAGGAGGUUUAACGGAUUUUCGGCGGAUGCCUCCAAA | < 1e-05 |  |  |  | 
28 | AUAAAAGCGCCAGAACUACAGAAAUGUAGUUGACGAGGAGGAGGUUUAAGGAAUUUACGGCGGAUGACUCAAAA | 0.000473 ± 0.00018 | 0.000223 ± 6.6e-05 | 0.000357 ± 0.00011 |  | 7.6e-05 ± 3.3e-05
29 | AUAAAAGCGCCAGAACUACAGAAAUGUAGUUGACGAGGAGGAGGUUUUUCGAAUUUUCGGUGGAUGCCUCCAAA | < 1e-05 |  | < 1e-05 |  | 
